The values below come from the supplement of paper PMC10724198.

± gives the standard deviation of the averaged measurements.
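Note: PSI is a weighted mean of sequencing reads over stability bins, variants kept only with over 10 reads, mCherry proximal and sfGFP distal, peptide attached via GGGS linker.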

This data set has as its system Saccharomyces cerevisiae. Put plainly: protein stability index of tFT-peptide fusion (C-terminal peptide) (PSI (0-1 scale)); higher = more stable (slower turnover). The settings on record: genetic background: wild type; temperature: 30 C. On the procedure: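 Multiplexed protein stability (MPS) profiling in S. cerevisiae. Random 12-aa peptides (tFT-X12 library) are fused to the C-terminus of a sfGFP-mCherry tandem fluorescent timer, after mCherry and a GGGS linker. Cells are FACS-sorted into 8 mCherry/sfGFP bins and deep-sequenced. The protein stability index (PSI) is the read-weighted bin average, scaled from 0 (unstable) to 1 (stable). Only peptides with >10 reads are reported; cells were grown at 30 °C in SC-His with glucose.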
In turn, GQWCGRLLRSGS displayed a protein stability index of 0.6845 ± 0.0059.
Regarding GRCWAGAMGVVG, the protein stability index stood at 0.71 ± 0.015.
GRETGGGKSRRK came in with a protein stability index of 0.687 ± 0.013.
On to GRFKLCWWCCGV, for which the protein stability index stood at 0.724 ± 0.035.
The sequence GRGAKPYIKQVY gave a protein stability index of 0.721 ± 0.034.
GRGGGGGLWVRV showed a protein stability index of 0.651 ± 0.023.
Turning to GRGGSIGEEWGG, the protein stability index worked out at 0.693 ± 0.021.
In turn, GRGLFRVVGLWV registered a protein stability index of 0.614 ± 0.043.
In turn, GRGLRWSWGCGG displayed a protein stability index of 0.693 ± 0.064.
For the sequence GRGLVSWEAGGV, the protein stability index amounted to 0.716 ± 0.018.
Next, GRKSESEEEQRR: 0.677 ± 0.052; GRLHHYGRCAQG: 0.664 ± 0.02.
GRLPPYLSRRLR returned a protein stability index of 0.7039 ± 0.0012.
The sequence GRLWGGIKGGMG showed a protein stability index of 0.663 ± 0.0096.
Sequence GRRLSGWGAWVV gave a protein stability index of 0.724 ± 0.063.
In the case of GRSAVRADFPFF it was 0.703 ± 0.16; in that of GRSITTSCTTER, 0.673 ± 0.036; in that of GRSNRRPWRSGL, 0.649 ± 0.018.
In the case of GRTDRPTDINSN it was 0.677 ± 0.052; in that of GRTNQKKEWIIR, 0.718 ± 0.01.
Next, GRVAGNERGGGR: 0.6083 ± 0.006; GRVGCGRNRLWS: 0.67 ± 0.053; GRVGFSRSFKCC: 0.641 ± 0.14.
For the sequence GRVGGGVEPCFV, the protein stability index worked out at 0.679 ± 0.021.
Sequence GRVGRGGAVGEW had a protein stability index of 0.671 ± 0.022.
Turning to GRWRRWSSEGLG, the protein stability index is 0.684 ± 0.026.
In turn, GSAGYLCQCSDI had a protein stability index of 0.681 ± 0.017.
In the case of GSCPPHPALPHL it was 0.713 ± 0.048; in that of GSEAVQRKNESC, 0.724 ± 0.08; in that of GSFLSAQRPCPV, 0.661 ± 0.023.
With GSFPPAAHFSPD, the protein stability index was 0.702 ± 0.043.
Next, GSGGGGGYVSGN: 0.69 ± 0.021; GSKISIKDKAQV: 0.685 ± 0.07; GSLSIVVCSFEF: 0.542 ± 0.044.
In the case of GSLVSKLGLGSG it was 0.69 ± 0.011; in that of GSPAVACSSPFF, 0.754 ± 0.073.
In the case of GSRSKLPICGCL it was 0.809 ± 0.18; in that of GSRSPEARARFV, 0.68748 ± 0.00064.
Consider GSRSPPPLRPPP, for which the protein stability index was 0.6755 ± 0.0012.
As to GSSCHFPARCPV, the protein stability index turned out to be 0.659 ± 0.018.
For GSSKVKEGNACR, the protein stability index was 0.694 ± 0.057.
Next, GSSRRMGEGVEM: 0.69 ± 0.02; GSVMGVGLEKKI: 0.732 ± 0.052; GSVRLLDNLQRL: 0.663 ± 0.057.
Regarding GSVTIDSMIHMR, the protein stability index amounted to 0.667 ± 0.037.
Next, GSWLGVGDRLVC: 0.717 ± 0.17; GSWMSGLWQTPV: 0.722 ± 0.065; GTCWAGALGVVG: 0.684 ± 0.04.
In the case of GTDGGRSSLGCR it was 0.718 ± 0.026; in that of GTDVGKVSASQG, 0.638 ± 0.037; in that of GTGGIFAVAPTL, 0.737 ± 0.044.
In the case of GTGRRRGWGVMG it was 0.664 ± 0.026.
Sequence GTLWPLPCRPDG yielded a protein stability index of 0.5607 ± 0.0021.
GTMAVWKGQRSG: the protein stability index was 0.698 ± 0.04.
In the case of GTNARGGPINIG it was 0.675 ± 0.0065.
Next, GTRQLGRTEPGE: 0.695 ± 0.038; GTTDVHLLLECE: 0.729 ± 0.011.
In the case of GTTNRMVTQKGF it was 0.712 ± 0.024; in that of GVCCLWVGFQGG, 0.704 ± 0.017; in that of GVCGVSKGRRHR, 0.701 ± 0.018.
The sequence GVCWGNFGWRAV had a protein stability index of 0.6839 ± 0.005.
For the sequence GVDDGGGCCRVR, the protein stability index worked out at 0.773 ± 0.009.
Regarding GVDGVLGGWGCG, the protein stability index was 0.786 ± 0.1.
In the case of GVDVSCVSPFGG it was 0.705 ± 0.03.
